Data from patent publication US20240141364.

Tests used:
Assay in all cases: cell_activity
[1] = test system: SB03937 ZF10-HDAC4-ecpd-degron (synthetic construct); conditions: mCherry increase with 1 uM pomalidomide vs no drug; represses without drug; U87-MG
[2] = test system: SB03759 degron-A(EAAAK)3A-ZF10-1-minKRAB (synthetic construct); conditions: mCherry increase with 1 uM pomalidomide vs no drug (release of repression); U87-MG; text describes the reporter as SEQ ID NO 56 core promoter with four …
[3] = test system: SB03758 degron-A(EAAAK)3A-ZF10-minKRAB (synthetic construct); conditions: mCherry increase with 1 uM pomalidomide vs no drug (release of repression); U87-MG
[4] = test system: SB03936 degron-A(EAAAK)3A-HDAC4-ZF10-1 (synthetic construct); conditions: mCherry increase with 1 uM pomalidomide vs no drug; represses without drug; U87-MG

Measured: activity

SB03758 degron-A(EAAAK)3A-ZF10-minKRAB (synthetic construct), sequence (chain, as listed by the source): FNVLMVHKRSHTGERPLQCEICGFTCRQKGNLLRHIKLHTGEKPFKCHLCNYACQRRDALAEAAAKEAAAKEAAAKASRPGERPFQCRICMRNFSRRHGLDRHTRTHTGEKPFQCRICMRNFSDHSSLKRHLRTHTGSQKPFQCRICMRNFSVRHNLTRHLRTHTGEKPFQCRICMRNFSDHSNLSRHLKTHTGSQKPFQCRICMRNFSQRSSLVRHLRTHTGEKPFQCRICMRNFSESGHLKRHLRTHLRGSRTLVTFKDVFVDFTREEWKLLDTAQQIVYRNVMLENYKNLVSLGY
SB03936 degron-A(EAAAK)3A-HDAC4-ZF10-1 (synthetic construct), sequence (chain, as listed by the source): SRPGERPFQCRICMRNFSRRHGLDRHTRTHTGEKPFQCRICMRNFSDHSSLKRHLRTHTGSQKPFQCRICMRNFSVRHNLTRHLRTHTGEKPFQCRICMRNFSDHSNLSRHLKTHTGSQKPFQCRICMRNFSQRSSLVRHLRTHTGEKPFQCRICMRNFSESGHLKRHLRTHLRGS
SB03759 degron-A(EAAAK)3A-ZF10-1-minKRAB (synthetic construct), sequence (chain, as listed by the source): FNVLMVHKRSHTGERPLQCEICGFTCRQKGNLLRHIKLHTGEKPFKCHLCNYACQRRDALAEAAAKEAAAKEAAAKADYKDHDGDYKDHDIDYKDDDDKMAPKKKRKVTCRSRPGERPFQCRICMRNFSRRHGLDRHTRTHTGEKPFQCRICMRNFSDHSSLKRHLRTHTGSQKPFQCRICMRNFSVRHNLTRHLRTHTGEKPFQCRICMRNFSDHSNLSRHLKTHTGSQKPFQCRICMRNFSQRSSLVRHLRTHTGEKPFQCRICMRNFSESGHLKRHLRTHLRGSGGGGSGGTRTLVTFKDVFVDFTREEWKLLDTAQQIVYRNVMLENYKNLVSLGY

CGGGTTTCGTAACAATCGCATGAGGATTCGCAACGCCTTCGGCGTAGCCGATGTCGCGCTCCCGTCTCAGTAAAGGTCGGCGTAGCCGATGTCGCGCAATCGGACTGCCTTCGTACGGCGTAGCCGATGTCGCGCGTATCAGTCGCCTCGGAACGGCGTAGCCGATGTCGCGCATTCGTAAGAGGCTCACTCTCCCTTACACGGAGTGGATAACTAGTTCTAGAGGGTATATAATGGGGGCCA (double strand) [4xZF10-1 binding sites + core promoter (mCherry reporter)]
> 4 fold: [1] | [2] | [3] | [4]
